Measurements: US20240377408A1

Key:
[1] = target: biotinylated peptide M64-P1-P2-ΔK-(PEG9)(PEG9)-K(Biotin) with P1 = V; experiment: BLI, biotinylated peptide on streptavidin tips, binder in solution
[2] = target: biotinylated peptide M64-P1-P2-ΔK-(PEG9)(PEG9)-K(Biotin) with P1 = T; experiment: as above

B1: S279_0004 (designed binder, not shown: small tags and cut ends; large carriers)
chain: EWGYASHNGPDHWHELFPNAKGENQSPIELHTKDIRHDPSLQPWSVSYDGGSAKTILNNGKTLGVVFDDTYDRSMLRGGPLPGPYRLREFHLHWGSSDDHGSEHTVDGVKYAAELHLLHWNPKYNTFKEALKQRDGLAVIGIFLKIGHENGEFQIFLDALDKIKTKGKEAPFTKFDPSSLFPASRDYWTYQGSMTIPPLMEAVVWLLLKEPMTVSSDQMAKLRSLLSSAENEPPVPLVSNWRPPQPINNRVVRASFK
- Kd [1]: < 350 nM

B2: Synthetic binder, S279_0004 (designed binder)
chain: B1 chain
- Kd [2]: 488 nM
- koff [2]: 0.0111 s⁻¹
- kon [2]: 23300 M⁻¹ s⁻¹
- Kd [1]: 20 nM
- koff [1]: 0.000473 s⁻¹
- kon [1]: 23700 M⁻¹ s⁻¹
